According to the Human Domainome abundance scans (Beltran et al. 2025):
± gives the uncertainty stated by the source.

B1: POU domain, class 3, transcription factor 3, residues 320 to 388; numbered along this chain, P20264 (parent)
chain: DDLEQFAKQFKQRRIKLGFTQADVGLALGTLYGNVFSQTTICRFEALQLSFKNMCKLKPLLNKWLEEAD

Variants of: B1
Assay: abundance fitness (aPCA) (normalised: wild type 0, dead -1); higher = more abundant; growth selection in yeast, the domain comes from the species named
Conditions: Homo sapiens

**Q.** Which abundance fitness does the source give for DDLEQFAKQFKQRRIKLGFTQADVGLALGTLYGNVFSYTTICRFEALQLSFKNMCKLKPLLNKWLEEAD here?
**A.** The abundance fitness was -0.207 ± 0.28.

**Q.** For DDLEQFAKQFKQRRIKLGFTQADVGLALGTLYGNVFSMTTICRFEALQLSFKNMCKLKPLLNKWLEEAD, which abundance fitness is on record?
**A.** Its abundance fitness is -0.498 ± 0.11.

**Q.** With DDLEQFAKQFKQRRIKLGFTQADVGLALGTLYGNVFSVTTICRFEALQLSFKNMCKLKPLLNKWLEEAD as the variant, how does the abundance fitness read?
**A.** Its abundance fitness is -0.421 ± 0.09.

**Q.** With DDLEQFAKQFKQRRIKLGFTQADVGLALGTLYGNVFSPTTICRFEALQLSFKNMCKLKPLLNKWLEEAD as the variant, how does the abundance fitness read?
**A.** The abundance fitness was -0.028 ± 0.12.

**Q.** For DDLEQFAKQFKQRRIKLGFTQADVGLALGTLYGNVFSTTTICRFEALQLSFKNMCKLKPLLNKWLEEAD, which abundance fitness is on record?
**A.** Its abundance fitness is 0.079 ± 0.076.

**Q.** For DDLEQFAKQFKQRRIKLGFTQADVGLALGTLYGNVFSRTTICRFEALQLSFKNMCKLKPLLNKWLEEAD, which abundance fitness is on record?
**A.** Its abundance fitness is -0.103 ± 0.066.

**Q.** For DDLEQFAKQFKQRRIKLGFTQADVGLALGTLYGNVFSNTTICRFEALQLSFKNMCKLKPLLNKWLEEAD, which abundance fitness is on record?
**A.** The abundance fitness was -0.435 ± 0.38.

**Q.** For DDLEQFAKQFKQRRIKLGFTQADVGLALGTLYGNVFSSTTICRFEALQLSFKNMCKLKPLLNKWLEEAD, which abundance fitness is on record?
**A.** Its abundance fitness is -0.082 ± 0.062.

**Q.** For DDLEQFAKQFKQRRIKLGFTQADVGLALGTLYGNVFSQETICRFEALQLSFKNMCKLKPLLNKWLEEAD, which abundance fitness is on record?
**A.** Its abundance fitness is 0.11 ± 0.11.

**Q.** With DDLEQFAKQFKQRRIKLGFTQADVGLALGTLYGNVFSQPTICRFEALQLSFKNMCKLKPLLNKWLEEAD as the variant, how does the abundance fitness read?
**A.** Its abundance fitness is -0.579 ± 0.18.

**Q.** With DDLEQFAKQFKQRRIKLGFTQADVGLALGTLYGNVFSQMTICRFEALQLSFKNMCKLKPLLNKWLEEAD as the variant, how does the abundance fitness read?
**A.** Its abundance fitness is -0.502 ± 0.13.

**Q.** For DDLEQFAKQFKQRRIKLGFTQADVGLALGTLYGNVFSQRTICRFEALQLSFKNMCKLKPLLNKWLEEAD, which abundance fitness is on record?
**A.** The abundance fitness was -0.058 ± 0.07.

**Q.** For DDLEQFAKQFKQRRIKLGFTQADVGLALGTLYGNVFSQHTICRFEALQLSFKNMCKLKPLLNKWLEEAD, which abundance fitness is on record?
**A.** Its abundance fitness is 0.074 ± 0.39.

**Q.** With DDLEQFAKQFKQRRIKLGFTQADVGLALGTLYGNVFSQWTICRFEALQLSFKNMCKLKPLLNKWLEEAD as the variant, how does the abundance fitness read?
**A.** The abundance fitness was -0.846 ± 0.23.

**Q.** For DDLEQFAKQFKQRRIKLGFTQADVGLALGTLYGNVFSQQTICRFEALQLSFKNMCKLKPLLNKWLEEAD, which abundance fitness is on record?
**A.** The abundance fitness was -0.077 ± 0.13.

**Q.** For DDLEQFAKQFKQRRIKLGFTQADVGLALGTLYGNVFSQKTICRFEALQLSFKNMCKLKPLLNKWLEEAD, which abundance fitness is on record?
**A.** Its abundance fitness is -0.006 ± 0.18.

**Q.** With DDLEQFAKQFKQRRIKLGFTQADVGLALGTLYGNVFSQSTICRFEALQLSFKNMCKLKPLLNKWLEEAD as the variant, how does the abundance fitness read?
**A.** Its abundance fitness is -0.099 ± 0.095.

**Q.** Which abundance fitness does the source give for DDLEQFAKQFKQRRIKLGFTQADVGLALGTLYGNVFSQATICRFEALQLSFKNMCKLKPLLNKWLEEAD here?
**A.** Its abundance fitness is -0.011 ± 0.085.

**Q.** With DDLEQFAKQFKQRRIKLGFTQADVGLALGTLYGNVFSQITICRFEALQLSFKNMCKLKPLLNKWLEEAD as the variant, how does the abundance fitness read?
**A.** Its abundance fitness is -0.157 ± 0.14.

**Q.** Which abundance fitness does the source give for DDLEQFAKQFKQRRIKLGFTQADVGLALGTLYGNVFSQDTICRFEALQLSFKNMCKLKPLLNKWLEEAD here?
**A.** The abundance fitness was 0.014 ± 0.2.

**Q.** With DDLEQFAKQFKQRRIKLGFTQADVGLALGTLYGNVFSQFTICRFEALQLSFKNMCKLKPLLNKWLEEAD as the variant, how does the abundance fitness read?
**A.** Its abundance fitness is -0.509 ± 0.32.

**Q.** For DDLEQFAKQFKQRRIKLGFTQADVGLALGTLYGNVFSQGTICRFEALQLSFKNMCKLKPLLNKWLEEAD, which abundance fitness is on record?
**A.** Its abundance fitness is -0.215 ± 0.083.

**Q.** For DDLEQFAKQFKQRRIKLGFTQADVGLALGTLYGNVFSQLTICRFEALQLSFKNMCKLKPLLNKWLEEAD, which abundance fitness is on record?
**A.** Its abundance fitness is -0.195 ± 0.086.

**Q.** Which abundance fitness does the source give for DDLEQFAKQFKQRRIKLGFTQADVGLALGTLYGNVFSQYTICRFEALQLSFKNMCKLKPLLNKWLEEAD here?
**A.** The abundance fitness was -0.769 ± 0.33.

**Q.** Which abundance fitness does the source give for DDLEQFAKQFKQRRIKLGFTQADVGLALGTLYGNVFSQTRICRFEALQLSFKNMCKLKPLLNKWLEEAD here?
**A.** The abundance fitness was -0.583 ± 0.086.

**Q.** For DDLEQFAKQFKQRRIKLGFTQADVGLALGTLYGNVFSQTGICRFEALQLSFKNMCKLKPLLNKWLEEAD, which abundance fitness is on record?
**A.** Its abundance fitness is -0.92 ± 0.15.

**Q.** For DDLEQFAKQFKQRRIKLGFTQADVGLALGTLYGNVFSQTNICRFEALQLSFKNMCKLKPLLNKWLEEAD, which abundance fitness is on record?
**A.** Its abundance fitness is -0.734 ± 0.32.

**Q.** Which abundance fitness does the source give for DDLEQFAKQFKQRRIKLGFTQADVGLALGTLYGNVFSQTSICRFEALQLSFKNMCKLKPLLNKWLEEAD here?
**A.** Its abundance fitness is -0.49 ± 0.11.

**Q.** With DDLEQFAKQFKQRRIKLGFTQADVGLALGTLYGNVFSQTAICRFEALQLSFKNMCKLKPLLNKWLEEAD as the variant, how does the abundance fitness read?
**A.** The abundance fitness was -0.386 ± 0.1.

**Q.** With DDLEQFAKQFKQRRIKLGFTQADVGLALGTLYGNVFSQTKICRFEALQLSFKNMCKLKPLLNKWLEEAD as the variant, how does the abundance fitness read?
**A.** Its abundance fitness is -0.179 ± 0.097.

**Q.** For DDLEQFAKQFKQRRIKLGFTQADVGLALGTLYGNVFSQTIICRFEALQLSFKNMCKLKPLLNKWLEEAD, which abundance fitness is on record?
**A.** Its abundance fitness is -0.553 ± 0.22.

**Q.** Which abundance fitness does the source give for DDLEQFAKQFKQRRIKLGFTQADVGLALGTLYGNVFSQTQICRFEALQLSFKNMCKLKPLLNKWLEEAD here?
**A.** Its abundance fitness is -0.102 ± 0.078.

**Q.** Which abundance fitness does the source give for DDLEQFAKQFKQRRIKLGFTQADVGLALGTLYGNVFSQTVICRFEALQLSFKNMCKLKPLLNKWLEEAD here?
**A.** Its abundance fitness is -0.174 ± 0.088.

**Q.** Which abundance fitness does the source give for DDLEQFAKQFKQRRIKLGFTQADVGLALGTLYGNVFSQTPICRFEALQLSFKNMCKLKPLLNKWLEEAD here?
**A.** Its abundance fitness is -0.704 ± 0.46.

**Q.** Which abundance fitness does the source give for DDLEQFAKQFKQRRIKLGFTQADVGLALGTLYGNVFSQTEICRFEALQLSFKNMCKLKPLLNKWLEEAD here?
**A.** The abundance fitness was -0.237 ± 0.11.

**Q.** With DDLEQFAKQFKQRRIKLGFTQADVGLALGTLYGNVFSQTHICRFEALQLSFKNMCKLKPLLNKWLEEAD as the variant, how does the abundance fitness read?
**A.** Its abundance fitness is -0.778 ± 0.4.

**Q.** With DDLEQFAKQFKQRRIKLGFTQADVGLALGTLYGNVFSQTDICRFEALQLSFKNMCKLKPLLNKWLEEAD as the variant, how does the abundance fitness read?
**A.** The abundance fitness was -0.393 ± 0.36.

**Q.** For DDLEQFAKQFKQRRIKLGFTQADVGLALGTLYGNVFSQTCICRFEALQLSFKNMCKLKPLLNKWLEEAD, which abundance fitness is on record?
**A.** The abundance fitness was -0.615 ± 0.16.

**Q.** With DDLEQFAKQFKQRRIKLGFTQADVGLALGTLYGNVFSQTWICRFEALQLSFKNMCKLKPLLNKWLEEAD as the variant, how does the abundance fitness read?
**A.** The abundance fitness was -0.441 ± 0.12.
